Results taken from paper PMC5014334.

Biological target: glutathione-S-transferase (GST)-CDK1 fusion protein (not stated (amplified from RNA of Vero cells; African green monkey from memory))

For “TrxA-His-p17 fusion protein (natural protein)”, the in vitro kinase assay: vimentin-Ser 56 phosphorylation of GST-vimentin (2 μM) by GST-CDK1 (10 nM) and GST-cyclin B1 (10 nM) with increasing TrxA-His-p17; Ki of p17 was 100 nM.
